# Experimental data: IntAct's records for PubMed 21187394
# B1: Protein BRASSINOSTEROID … 1 (Arabidopsis thaliana (Mouse-ear cress)), O22476 (parent)
# chain: MKTFSSFFLSVTTLFFFSFFSLSFQASPSQSLYREIHQLISFKDVLPDKNLLPDWSSNKNPCTFDGVTCRDDKVTSIDLSSKPLNVGFSAVSSSLLSLTGLESLFLSNSHINGSVSGFKCSASLTSLDLSRNSLSGPVTTLTSLGSCSGLKFLNVSSNTLDFPGKVSGGLKLNSLEVLDLSANSISGANVVGWVLSDGCGELKHLAISGNKISGDVDVSRCVNLEFLDVSSNNFSTGIPFLGDCSALQHLDISGNKLSGDFSRAISTCTELKLLNISSNQFVGPIPPLPLKSLQYLSLAENKFTGEIPDFLSGACDTLTGLDLSGNHFYGAVPPFFGSCSLLESLALSSNNFSGELPMDTLLKMRGLKVLDLSFNEFSGELPESLTNLSASLLTLDLSSNNFSGPILPNLCQNPKNTLQELYLQNNGFTGKIPPTLSNCSELVSLHLSFNYLSGTIPSSLGSLSKLRDLKLWLNMLEGEIPQELMYVKTLETLILDFNDLTGEIPSGLSNCTNLNWISLSNNRLTGEIPKWIGRLENLAILKLSNNSFSGNIPAELGDCRSLIWLDLNTNLFNGTIPAAMFKQSGKIAANFIAGKRYVYIKNDGMKKECHGAGNLLEFQGIRSEQLNRLSTRNPCNITSRVYGGHTSPTFDNNGSMMFLDMSYNMLSGYIPKEIGSMPYLFILNLGHNDISGSIPDEVGDLRGLNILDLSSNKLDGRIPQAMSALTMLTEIDLSNNNLSGPIPEMGQFETFPPAKFLNNPGLCGYPLPRCDPSNADGYAHHQRSHGRRPASLAGSVAMGLLFSFVCIFGLILVGREMRKRRRKKEAELEMYAEGHGNSGDRTANNTNWKLTGVKEALSINLAAFEKPLRKLTFADLLQATNGFHNDSLIGSGGFGDVYKAILKDGSAVAIKKLIHVSGQGDREFMAEMETIGKIKHRNLVPLLGYCKVGDERLLVYEFMKYGSLEDVLHDPKKAGVKLNWSTRRKIAIGSARGLAFLHHNCSPHIIHRDMKSSNVLLDENLEARVSDFGMARLMSAMDTHLSVSTLAGTPGYVPPEYYQSFRCSTKGDVYSYGVVLLELLTGKRPTDSPDFGDNNLVGWVKQHAKLRISDVFDPELMKEDPALEIELLQHLKVAVACLDDRAWRRPTMVQVMAMFKEIQAGSGIDSQSTIRSIEDGGFSTIEMVDMSIKEVPEGKL
# partner: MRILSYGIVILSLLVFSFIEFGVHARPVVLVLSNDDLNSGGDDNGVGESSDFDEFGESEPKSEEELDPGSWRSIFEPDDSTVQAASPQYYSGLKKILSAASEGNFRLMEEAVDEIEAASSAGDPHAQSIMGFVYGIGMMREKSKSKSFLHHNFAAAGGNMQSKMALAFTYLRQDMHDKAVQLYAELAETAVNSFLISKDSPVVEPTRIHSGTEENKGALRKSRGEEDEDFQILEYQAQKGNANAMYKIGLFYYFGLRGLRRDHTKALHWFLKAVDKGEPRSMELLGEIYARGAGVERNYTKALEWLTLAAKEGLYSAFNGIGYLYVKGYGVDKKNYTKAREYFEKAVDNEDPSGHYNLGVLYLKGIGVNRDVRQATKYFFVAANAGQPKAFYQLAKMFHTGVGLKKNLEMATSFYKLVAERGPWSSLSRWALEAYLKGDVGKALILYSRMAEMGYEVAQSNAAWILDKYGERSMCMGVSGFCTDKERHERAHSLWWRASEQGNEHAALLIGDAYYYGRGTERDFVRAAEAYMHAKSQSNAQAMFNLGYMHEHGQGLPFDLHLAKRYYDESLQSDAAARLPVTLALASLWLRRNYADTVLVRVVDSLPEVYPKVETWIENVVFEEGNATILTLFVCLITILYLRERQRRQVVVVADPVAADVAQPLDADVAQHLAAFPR
# Variants of: B1
# Settings: with hrd3a_arath HRD3A
row,effect of a mutation on the interaction,Variant
1,increasing interaction strength,C69Y
2,increasing interaction strength,S662F
